From article PMC12139977

Legend:
[1] = molecular target: Syntaxin-1A (rat (endogenous in INS1 (832/13))) (UniProt P32851); test: proximity ligation
[2] = molecular target: Syntaxin-1A (rat (endogenous in INS1 (832/13))) (UniProt P32851); test: co-IP

Sequence of UniProt P32851 (P32851 whole entry): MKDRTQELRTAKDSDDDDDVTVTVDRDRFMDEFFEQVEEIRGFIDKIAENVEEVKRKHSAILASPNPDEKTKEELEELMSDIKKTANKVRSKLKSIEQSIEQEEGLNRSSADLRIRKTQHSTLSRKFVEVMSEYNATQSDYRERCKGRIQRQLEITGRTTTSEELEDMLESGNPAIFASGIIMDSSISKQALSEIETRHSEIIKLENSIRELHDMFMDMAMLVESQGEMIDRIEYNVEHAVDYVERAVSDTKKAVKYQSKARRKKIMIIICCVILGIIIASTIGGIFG

Substance	fold increase of PLA signal over the control [1]	fold increase of Tomosyn-2 bound to Stx1A against control cells [2]
Tomosyn-2 (natural protein)	8 fold	–
stabilized V5-tagged Tomosyn-2 (natural protein)	–	3 fold
